Reference: paper PMC4403811, “Efficient Cargo Delivery into Adult Brain Tissue Using Short Cell-Penetrating Peptides” (PLoS ONE, 2015)
Where no end group is shown, it is not given here.

Columns and labels:
[1] = system: adult zebrafish brain (telencephalon); settings: for number of TUNEL-positive (apoptotic) cells: CVMI 200 μM, 1 dpi, per telencephalic hemisphere per section, n = 3
Method: (§1) Cerebroventricular microinjections (CVMI) were executed as described in [7, 8]. Fish were anesthetized using MESAB (0.01%) and an incision placed above the optic tectum with a fine needle (Becton Dickinson Biosciences). Through this hole a glass capillary is inserted and the liquid disperses evenly throughout the cerebroventricular fluid upon high pressure injection.
(§2) Fish were sacrificed 1 day post injection and heads fixed over night at 4°C in 2% PFA. Thereafter heads were transferred to 20% Sucrose-EDTA in […] phosphate buffer, pH 7.5. For cryosectioning embedding in Sucrose(20%)-Gelatine (7.5%) on dry ice was done and heads stored at -80°C. 12 μm cryosections were cut using a cryostat microtome and stored at -20°C.
TUNEL stainings of sections were carried out using the ApoTag Red In Situ apoptosis Detection Kit (Chemicon International). Stainings were performed according to manufacturer’s instructions and positive and negative controls were included.
(§3) Images were acquired using an inverted Zeiss AxioImager Z1. Only sections between the caudal end of the olfactory bulb and anterior commissure were counted. The quantification of the average translocation range was done using the AxioVision free hand surface area measurement tool. The area showing anti-fluorescein staining in the left hemisphere was measured against the total this telencephalic hemisphere, based on color thresholds against control images. The statistical evaluation was performed using GraphPad Prism (Version 6.02) for one-way ANOVA followed by a Tukey’s post-hoc test and for Student’s T-Test. Error bars shown are the s.e.m. and asterisks indicate significance according to: *: p0.05, **: p0.01, ***: p0.001. p>0.05 is considered not significant.

[2] = system: adult zebrafish brain (telencephalic hemisphere); assay: Peptide translocation area in the telencephalon after CVMI (fluorescein IHC); settings: 5(6)-carboxyfluorescein-labelled peptide, fluorescein IHC at 1 dpi, n = 3, mean ± s.e.m.
Method: as §1, §2
(§4) Stainings were performed as previously described in [36, 43]. Yet after the first washing step a 6 min citrate buffer treatment at 85°C was done. Primary antibodies were sheep anti-fluorescein AP (1:4000, Roche), mouse anti-PCNA (1:500, Dako Cyto) and rabbit anti L-Plastin (Lcp1, 1:7500, a kind gift from Michael Redd, University of Utah, Salt Lake City, UT, USA), they were diluted in PBS. They were incubated at 4°C overnight and secondary antibodies for 30 min at room temperature. Secondary antibodies were Alexa anti-rabbit and anti-mouse 488, 555 (1:500, Molecular probes). FastRed stainings were carried out using Fast Red TR/Naphtol AS-MX tablets (Sigma), according to manufacturer's instructions. Lastly sections were washed using PBSTx and mounted. All immunohistochemical stainings were done on at least five individuals.
as §3

[3] = system: adult zebrafish brain (telencephalic hemispheres); assay: Relative fluorescence levels in the telencephalic hemispheres after CVMI (surface plots); settings: CVMI 100 μM; for relative fluorescence levels in the telencephalic hemispheres (level of peptide translocated to deep tissues): Fast-Red staining of cryosections, compared to control PolyD
Method: as §1, §2, §4
(§5) Images were acquired using an inverted Zeiss AxioImager Z1. Only sections between the caudal end of the olfactory bulb and anterior commissure were counted. The quantification of the average translocation range was done using the AxioVision free hand surface area measurement tool. The area showing anti-fluorescein staining in the left hemisphere was measured against the total this telencephalic hemisphere, based on color thresholds against control images. […]

[4] = system: adult zebrafish brain (telencephalon); assay: L-Plastin immunohistochemistry for immune response (leukocytes/microglia) after peptide CVMI; settings: for number of L-Plastin-positive cells per hemisphere per section: dose not printed in the block (heading: high doses), PBS-injected control 35 ±6, n = 3, mean ± s.e.m.
Method: as §1, §2, §4, §3

[5] = system: adult zebrafish brain (ventricular progenitor cells); settings: CVMI 200 μM, PCNA IHC, n = 3, mean ± s.e.m.
Method: as §1, §2
Stainings were performed as previously described in [36, 43]. Yet after the first washing step a 6 min citrate buffer treatment at 85°C was done. […]
as §5

[6] = injection concentration 100 μM, stained area vs total hemisphere
[7] = CVMI at 100 μM, 150 μM and 200 μM (all doses tested), n = 4

Substance | number of TUNEL-positive (apoptotic) cells [1] | average area of peptide translocation in one telencephalic hemisphere [2, 6] | relative fluorescence levels in the telencephalic hemispheres (level of peptide translocated to deep tissues) [3] | number of L-Plastin-positive cells per hemisphere per section ([4]; CVMI) | average area of peptide translocation in one telencephalic hemisphere ([2]; injection concentration 200 μM) | ventricularly proliferating progenitor cells (PCNA+ cells per telencephalic hemisphere section) [5] | cell death response (TUNEL-positive cells) compared to PolyD control [1, 7] | maximum concentration usable without any cell death response ([1]; CVMI, doses tested 100, 150, 200 μM, TUNEL) | effectiveness of penetration relative to Trans (relative fluorescence) ([3]; PolyR versus Trans) | immune response (L-Plastin-positive cells) compared to PolyD control [4, 7] | maximum concentration usable without activating the immune system ([4]; CVMI, doses tested 100, 150, 200 μM, L-Plastin IHC)
DDDDDDDDD ({5(6)‑carboxyfluorescein}-DDDDDDDDD) [PolyD, Poly-Aspartic Acid] | did not result in any increase in the number of apoptotic cells | did not show any penetration | no translocation | do not alter the number of leukocytes/microglia |  |  |  |  |  |  | 
RKKRRQRRR [Tat] |  | 27 ±13% |  |  | 63 ± 11% |  |  |  |  |  | 
RPARPAR ({5(6)‑carboxyfluorescein}-RPARPAR) [CendRP] |  | did not show any penetration |  |  |  |  |  |  |  |  | 
RRRRRRRRR [PolyR, Poly-Arginine] | unchanged levels of TUNEL-positive cells | 70 ± 4% | significantly elevated levels of penetration | do not alter the number of leukocytes/microglia | 70 ± 5% | not altered | did not elicit any cell death response | not toxic at such concentrations | 3 fold | did not elicit any immune response | not causing an immune reaction at tested concentrations
